16 sequences from the nanobody polyreactivity screen of Harvey et al. (2022) can be followed below.

This data set is described as follows: yeast display, Sf9 membrane polyspecificity reagent, FACS + sequencing; frameworks hold sequencing errors. The method in brief:
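A nanobody's polyreactivity label depends on the gate it was sorted from. Yeast display cells were stained with 10% biotinylated, detergent-solubilized Sf9 membrane reagent for 1 hour at 4 °C, enriched on streptavidin microbeads and sorted by FACS. The low and high (top ~1%) gates were set on anti-HA fluorescence for expression and streptavidin fluorescence for reagent binding.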
On to “QVQLVESGGGLVQPGGTLRLTCAGSGSILTGNAMRWYRQAPGKERELVAAITSGGSTYYADSVKGRFTISRDNAKNTVYLQMNSLNQADSAGYYCAASRWRPLERGTTWLHDYWGQGTQVTVSS”, for which the “polyreactivity (PSR sort gate)” value was “low polyreactivity”.

For the sequence “QVQLVESGGGLVQSGCSLRLSCAASGRIFDRYAMGSYRQAPGKERELVAAISSSGGSTYYADSVKGRFTISRDHAKNTVYLLMNSLKPEDTAVYYCATGTSRYRHQRDYWGQGTQVTVSS”, the “polyreactivity (PSR sort gate)” value is “high polyreactivity”.

As for “QVQLVESGGGLVQSGGSLRLSCAASGFIFGGYAMGWYRQAPGTERELVASITWSGGRTFYADSVKGRFTISRDNAKNTVYLQMNSLKPEDTEVYYCAAGIYFTPYYYYPPNPFDYWGQGTQVTVSS”, the “polyreactivity (PSR sort gate)” value was “low polyreactivity”.

For the sequence “QVQLVESGGGLVQSGGSLRLSCAASGRIFGAYAMGWYRQAPGKDRELVAAITSAGSTHYADSVKGRFTISRDNAKNTVYLQMNSLKPEDTAVYYCAADGIASAYVLFDAYDFLYDYWGQGTQVTVSS”, the “polyreactivity (PSR sort gate)” value is listed as “low polyreactivity”.

With “QVQLVESGGGLVQSGGSLRLSCAASGRIFRAYAMGWYIQAPGQERELVADITSGSGSTYYADSVKGRFTISRDYANNTVYLHMNSLKTEDTAVYYCAAYVLIRVWEYYYWGQGTQVNVSS”, the “polyreactivity (PSR sort gate)” value is on record as “low polyreactivity”. The entry for “QVQLVESGGGLVQSGGSLRLSCAASGRIFRFYTMGWYRQAPGKERELVAAITQRGGRTYYADSVKGRFTISRDNAKNTVYLQMNSLKPEDTAVYYCAATTTVAEYDYWGQGTQVTVSS” is “high polyreactivity”; for “QVQLVESGGGLVQSGGSLRLSCAASGRIFTHYAMGWYRQAPGKERELVAALSRSGGSTYYADSVKGRFTISRDNAKNTVYLQLNSLIPEDTADYYCDADGGRYFYRGTYREMNYWAQGTQVTVSS” it is “high polyreactivity”. The entry for “QVQLVESGGGLVQSGGSLRLSCAASGRTFFKYSMGWYRQAPGKEREMVATITSSGGITYADSVKGRFTISRDNAKNSVYLQMNSLKPEDTAVYYCNARVWVTHYSELNYWGQGTQVTVSS” is “low polyreactivity”; for “QVQLVESGGGLVQSGGSLRLSCAASGRTFGYNAMGWYRQAPGKERELVAAISRSGDSTYYADSVKGRFTISRDNAKNTVYLQMNSLNPEVTAVFYCATRYVTTGYDYWGQGTQVTVSS” it is “low polyreactivity”. As to “QVQLVESGGGLVQSGGSLRLSCAASGRTFKSYAMGWYRQAPGKERELVAAITWSGGSTYYADSVKGRFTISRDNAKITVYFQMNSLKPEDTAVYYCAADSVYYYWYGYDYWGQGTQVTVSS”, the “polyreactivity (PSR sort gate)” value is on record as “low polyreactivity”. For “QVQLVESGGGLVQSGGSLRLSCAASGRTFYNNAMGWYRQAPGKERELVATINNRGGTTYYADSVKGRFTISRDNAKNTVYLQMNSLKPEDTAVYYCANSAQRYSYRYYYWGQGTQVTVSS”, the “polyreactivity (PSR sort gate)” value was “high polyreactivity”. The entry for “QVQLVESGGGLVQSGGSLRLSCAASGSIFDFYAMGWHRQAPGKERELVATITASGGSTYYADSVKGRFTISRDNAKITVYLQMNSLKPVDTAVYYCNADSVYWGQGTQVTVSS” is “low polyreactivity”; for “QVQLVESGGGLVQSGGSLRLSCAASGSILKPYAMGWYRQAPGKERELVAAIRSSGGRTNYADSVKGRFTISRDNAKNSVYLQMNSLKPEDTAVYYCAAGYVSYWYYRYDYWGQGTQVTVSS” it is “high polyreactivity”; for “QVQLVESGGGLVQSGGSLRLSCAASGSTFASNAMGWYRQAPGTEMELVAAISRSADSTYYADSVKGRFTISRDNAKNTVYLQMNSLKPEDTAVYYCAARHSRYRNPKYYYWGQGTQVTVSS” it is “high polyreactivity”. As to “QVQLVESGGGLVQSGGSLRLSCAASGSTFGFYAMGGYRQAPGKERELVAAISRGGSTNYADSVKGRFTISRDNAKNTVSCQMNSLKPEDTAVYYCAKAYHATSYYWGQGTQVTVSS”, the “polyreactivity (PSR sort gate)” value was “low polyreactivity”. For the sequence “QVQLVESGGGLVQSGGSLRLSCAASGSTFTLYAMGWYRQAPGKERELVAAIRASVGRTYNADSVKGRFTISRDNAKNTVYLQMNSLKPEDTAVYYCNAYGRYGKFRVEYDYWGQGTQVTVSS”, the “polyreactivity (PSR sort gate)” value was “low polyreactivity”.
